The values that follow are results of earlier work, collected in article PMC8711257.

Data set [1] deals with MET (Homo sapiens) (UniProt P08581).
The target in data set [2] is MET ECD (Homo sapiens) (UniProt P08581).

Usually Kd stands for a measure of binding affinity in units of concentration. With HGF NK1 NK1 (from UniProt P14210), the Kd is 3 nM in data set [1] and 150 nM in data set [2].
